Residue numbers refer to the chain shown, from its start. Where “and” joins values, the source holds several entries; their conditions need not be identical. Equal entries are not always repeated. Where two headings read alike, the source gives them in different places.
Tests used:
[1] = target: T1, SARS-CoV-2 RBD (residues 331-550 of spike from BetaCoV/Wuhan-Hu-1/2019, accession number MN908947) (SARS-CoV-2 Wuhan-Hu-1, UniProt P0DTC2 331-550)
[2] = target: T1, SARS-CoV-2 RBD (residues 331-550 of …); experiment: BLI
[3] = target: T1, SARS-CoV-2 RBD (residues 331-550 of …); experiment: ELISA
[4] = target: SARS-CoV-2 mutant RBD N439K (SARS-CoV-2, UniProt P0DTC2 328-531); experiment: ELISA
[5] = target: T1, SARS-CoV-2 RBD (residues 331-550 of …); experiment: BLI; remark: listed apart in the source
SARS-CoV-2 Spike protein [6] = target: T2, SARS-CoV-2 Spike protein (SARS-CoV-2 Wuhan-Hu-1, UniProt P0DTC2 14-1273); experiment: cell-based or functional assay
SARS-CoV-2 Spike protein [7] = target: T2, SARS-CoV-2 Spike protein; experiment: cell-based or functional assay; remark: listed apart in the source

B1: 407_10_1_v2 (antibody, V domains shown)
VH: QVQLVQSGAEVKKPGSSVKVSCKASGGIFNTYTISWVRQAPGQGLEWMGRIILMSGMANYAQKIQGRVTITADKSTSTAYMELTSLRSDDTAVYYCARGFNGNYYGWGDDDAFDIWGQGTLVTVYS
VL: QTVLTQPPSVSGAPGQRVTISCTGSNSNIGAGYDVHWYQQLPGTAPKLLICGNSNRPSGVPDRFSGSKSGTSASLAITGLQAEDEADYYCQSYDSSLSGPNWVFGGGTKLTVL
EC50 (read off the curve) [1]: ~5 µg/mL

B2: S2X259 variant antibody, VH SEQ ID NO 460 / VL SEQ ID NO 445 (antibody, V domains shown)
VH: B1 VH with M54I, M57I, Y125S
VL: B1 VL with C51V
Kd [2]: 0.298 nM | koff [2]: 0.000177 s⁻¹ | kon [2]: 595000 M⁻¹ s⁻¹ | IC50 [3]: ≥ 0.05 µg/mL and ≤ 0.1 µg/mL

B3: S2X259 variant antibody, VH SEQ ID NO 459 / VL SEQ ID NO 445 (antibody, V domains shown)
VH: B1 VH with M57K, Y125S
VL: B1 VL with C51V
Kd [2]: 0.108 nM | koff [2]: 6.46e-05 s⁻¹ | kon [2]: 601000 M⁻¹ s⁻¹ | IC50 [3]: ≥ 0.05 µg/mL and ≤ 0.1 µg/mL | IC50 [4]: ≥ 0.05 µg/mL and ≤ 0.1 µg/mL

B4: S2X259 variant antibody, VH SEQ ID NO 408 / VL SEQ ID NO 444 (antibody, V domains shown)
VH: B1 VH with W116S
VL: B1 VL with C51Y
Kd [5]: 0.0642 nM | neutralization IC50 (SARS-CoV-2 Spike protein [6]): 0.167 µg/mL

B5: S2X259 variant antibody, VH SEQ ID NO 408 / VL SEQ ID NO 445 (antibody, V domains shown)
VH: B1 VH with W116S
VL: B1 VL with C51V
Kd [5]: 0.0764 nM | Kd [2]: 0.0314 nM | koff [2]: 2.08e-05 s⁻¹ | kon [2]: 661000 M⁻¹ s⁻¹ | neutralization IC50 (SARS-CoV-2 Spike protein [7]): < 0.1 µg/mL | neutralization IC50 (SARS-CoV-2 Spike protein [6]): 0.19 µg/mL

B6: S2X259 variant antibody, VH SEQ ID NO 448 / VL SEQ ID NO 412 (antibody, V domains shown)
VH: B1 VH with N30S, W116S
VL: B1 VL
Kd [5]: 0.584 nM | neutralization IC50 (SARS-CoV-2 Spike protein [6]): 0.0134 µg/mL

B7: S2X259 variant antibody, VH SEQ ID NO 446 / VL SEQ ID NO 412 (antibody, V domains shown)
VH: B1 VH with M54I, M57I, W116S
VL: B1 VL
Kd [5]: 0.572 nM | neutralization IC50 (SARS-CoV-2 Spike protein [6]): 0.321 µg/mL

B8: S2X259 variant antibody, VH SEQ ID NO 408 / VL SEQ ID NO 443 (antibody, V domains shown)
VH: B1 VH with W116S
VL: B1 VL with C51A
Kd [5]: 0.0828 nM | neutralization IC50 (SARS-CoV-2 Spike protein [7]): < 0.1 µg/mL | neutralization IC50 (SARS-CoV-2 Spike protein [6]): 0.0975 µg/mL

B9: S2X259 variant antibody, VH SEQ ID NO 408 / VL SEQ ID NO 442 (antibody, V domains shown)
VH: B1 VH with W116S
VL: B1 VL with C51S
Kd [5]: 0.0605 nM | neutralization IC50 (SARS-CoV-2 Spike protein [6]): 0.19 µg/mL

B10: S2X259 variant antibody, VH SEQ ID NO 458 / VL SEQ ID NO 445 (antibody, V domains shown)
VH: B1 VH with Y125S
VL: B1 VL with C51V
Kd [2]: 0.0836 nM | koff [2]: 5.03e-05 s⁻¹ | kon [2]: 601000 M⁻¹ s⁻¹ | IC50 [3]: ≥ 0.05 µg/mL and ≤ 0.1 µg/mL | IC50 [4]: ≥ 0.05 µg/mL and ≤ 0.1 µg/mL

From patent US20240059757A1 (VIR BIOTECHNOLOGY, published 2024)
